For series [1], the target named is AtBAM2 with the Ndel1 truncation (Arabidopsis thaliana) (UniProt O65258). Kind of series: small-angle X-ray scattering.
Series [2] deals with the molecule itself. Kind of series: small-angle X-ray scattering.

Take “AtBAM2 with the Ndel1 truncation (from UniProt O65258 86-542) (domain or fragment)”: the stoichiometry N in series [1] was 4.

B1: Arabidopsis thaliana β-amylase2 (AtBAM2), wild type (enzyme, UniProt O65258 56-542, looked up)
chain: AESTEEDRVPIDDDDDSTDQLVDEEIVHFEERDFAGTACVPVYVMLPLGVIDMNSEVVEPEELLDQLRTLKSVNVDGVMVDCWWGIVESHTPQVYNWSGYKKLFQMIRELGLKIQVVMSFHECGGNVGDDVHIQIPEWVREIGQSNPDIYFTDSAGRRNTECLTWGIDKQRVLRGRTALEVYFDYMRSFRVEFDEFFEEKIIPEIEVGLGPCGELRYPSYPAQFGWKYPGIGEFQCYDKYLMNSLKEAAEVRGHSFWGRGPDNTETYNSTPHGTGFFRDGGDYDSYYGRFFLNWYSRVLIDHGDRVLAMANLAFEGTCIAAKLSGIHWWYKTASHAAELTAGFYNSSNRDGYGPIAAMFKKHDAALNFTCVELRTLDQHEDFPEALADPEGLVWQVLNAAWDASIPVASENALPCYDREGYNKILENAKPLTDPDGRHLSCFTYLRLNPTLMESQNFKEFERFLKRMHGEAVPDLGLAPGTQETNPE
Turning to B1, the “stoichiometry N” value in series [2] amounted to 4.

Source of the values: publication doi:10.1101/751602 (bioRxiv, 2019).
